Measured values: the supplement of paper PMC9112550, “Optimization of the antimicrobial peptide Bac7 by deep mutational scanning” (BMC Biology, 2022)

Each sequence was assayed on Escherichia coli TOP10 (assay: shrunken log2 fold change of peptide-encoding DNA abundance (4.5 h post-induction vs induction); higher = less antimicrobial activity (less host growth inhibition)). Conditions: time post-induction: 4.5 h; library: site-saturation at positions 5, 18, 19, 20.
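Further: peptides expressed intracellularly from a pBAD plasmid library in pooled LB shake-flask culture, induced with 0.3% L-arabinose, DNA abundance read by NGS, three biological replicates, DESeq2 with apeglm shrinkage.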

Row | Sequence | shrunken log2 fold change
1 | RRIRVRPPRLPRPRPRPGVAPRP | 0.377
2 | RRIRPRPPRLPRPRPRPRTSPRP | 0.59
3 | RRIRPRPPRLPRPRPRPNFEPRP | 0.275
4 | RRIRARPPRLPRPRPRPMTAPRP | 0.433
5 | RRIRPRPPRLPRPRPRPTKNPRP | 0.0886
6 | RRIRNRPPRLPRPRPRPRQDPRP | 0.0815
7 | RRIRNRPPRLPRPRPRPGWYPRP | -0.273
8 | RRIRGRPPRLPRPRPRPCYTPRP | 0.498
9 | RRIRHRPPRLPRPRPRPRNAPRP | 0.184
10 | RRIRSRPPRLPRPRPRPLFEPRP | -0.0159
11 | RRIRLRPPRLPRPRPRPRIEPRP | -0.0339
12 | RRIRERPPRLPRPRPRPSLMPRP | -0.459
13 | RRIRIRPPRLPRPRPRPFYSPRP | -0.476
14 | RRIRCRPPRLPRPRPRPVMRPRP | 0.16
15 | RRIRVRPPRLPRPRPRPGFNPRP | -0.0909
16 | RRIRPRPPRLPRPRPRPTHTPRP | 0.13
17 | RRIRYRPPRLPRPRPRPVEEPRP | -0.32
18 | RRIRNRPPRLPRPRPRPPRYPRP | 0.0834
19 | RRIRRRPPRLPRPRPRPAESPRP | 0.256
20 | RRIRYRPPRLPRPRPRPDCPPRP | -0.179
21 | RRIRYRPPRLPRPRPRPHSVPRP | -0.07
22 | RRIRIRPPRLPRPRPRPMIWPRP | -0.0224
23 | RRIRPRPPRLPRPRPRPTDCPRP | 0.165
24 | RRIRKRPPRLPRPRPRPEMNPRP | 2.14
25 | RRIRRRPPRLPRPRPRPVRAPRP | 0.935

Row | Sequence | shrunken log2 fold change
26 | RRIRMRPPRLPRPRPRPEEHPRP | 2.85
27 | RRIRARPPRLPRPRPRPPKWPRP | 0.732
28 | RRIRKRPPRLPRPRPRPLREPRP | 0.718
29 | RRIRCRPPRLPRPRPRPQNMPRP | -0.78
30 | RRIRGRPPRLPRPRPRPFYWPRP | 0.161
31 | RRIRNRPPRLPRPRPRPEPRPRP | 0.635
32 | RRIRQRPPRLPRPRPRPNKCPRP | -0.145
33 | RRIRSRPPRLPRPRPRPCPSPRP | 0.0411
34 | RRIRGRPPRLPRPRPRPAHIPRP | 0.0667
35 | RRIRYRPPRLPRPRPRPWFEPRP | -0.2
36 | RRIRSRPPRLPRPRPRPAYDPRP | -0.477
37 | RRIRLRPPRLPRPRPRPPEAPRP | 0.255
38 | RRIRSRPPRLPRPRPRPPYYPRP | -0.174
39 | RRIRCRPPRLPRPRPRPQSLPRP | 0.0939
40 | RRIRKRPPRLPRPRPRPRGIPRP | 0.0697
41 | RRIRDRPPRLPRPRPRPHHIPRP | -0.361
42 | RRIRVRPPRLPRPRPRPEPCPRP | -0.0507
43 | RRIRQRPPRLPRPRPRPQDDPRP | -0.0165
44 | RRIRQRPPRLPRPRPRPEFTPRP | -0.0117
45 | RRIRMRPPRLPRPRPRPQRVPRP | 1.27
46 | RRIRSRPPRLPRPRPRPHCIPRP | 0.021
47 | RRIRGRPPRLPRPRPRPCFWPRP | 0.67
48 | RRIRHRPPRLPRPRPRPGPNPRP | 0.813
49 | RRIRGRPPRLPRPRPRPRMCPRP | 0.197
50 | RRIRHRPPRLPRPRPRPPRIPRP | 0.0175

Row | Sequence | shrunken log2 fold change
51 | RRIRRRPPRLPRPRPRPMPDPRP | 0.442
52 | RRIRRRPPRLPRPRPRPEFHPRP | 0.0566
53 | RRIRDRPPRLPRPRPRPFTKPRP | -0.262
54 | RRIRFRPPRLPRPRPRPTNMPRP | -0.712
55 | RRIRMRPPRLPRPRPRPIPCPRP | 0.02
56 | RRIRVRPPRLPRPRPRPSRMPRP | -0.0384
57 | RRIRMRPPRLPRPRPRPKHGPRP | 0.742
58 | RRIRRRPPRLPRPRPRPEVFPRP | 0.0496
59 | RRIRLRPPRLPRPRPRPTTRPRP | 0.34
60 | RRIRWRPPRLPRPRPRPWQGPRP | -0.11
61 | RRIRFRPPRLPRPRPRPRKWPRP | 0.498
62 | RRIRHRPPRLPRPRPRPIFMPRP | -0.0784
63 | RRIRSRPPRLPRPRPRPRGMPRP | 0.164
64 | RRIRFRPPRLPRPRPRPRQMPRP | -0.0877
65 | RRIRHRPPRLPRPRPRPAYGPRP | -0.075
66 | RRIRHRPPRLPRPRPRPPFTPRP | -0.176
67 | RRIRRRPPRLPRPRPRPWQWPRP | 0.549
68 | RRIRLRPPRLPRPRPRPEKRPRP | -0.148
69 | RRIRRRPPRLPRPRPRPWTKPRP | 0.124
70 | RRIRYRPPRLPRPRPRPWYNPRP | -0.764
71 | RRIRARPPRLPRPRPRPFMQPRP | -0.0876
72 | RRIRQRPPRLPRPRPRPADKPRP | -0.137
73 | RRIRGRPPRLPRPRPRPTVAPRP | 1.99
74 | RRIRNRPPRLPRPRPRPDRAPRP | 0.171
75 | RRIRCRPPRLPRPRPRPELDPRP | 0.00162

Row | Sequence | shrunken log2 fold change
76 | RRIRMRPPRLPRPRPRPVNLPRP | -0.0198
77 | RRIRFRPPRLPRPRPRPVISPRP | -0.674
78 | RRIRWRPPRLPRPRPRPLKDPRP | -0.178
79 | RRIRCRPPRLPRPRPRPKLCPRP | 0.0418
80 | RRIRMRPPRLPRPRPRPTRNPRP | 0.212
81 | RRIRDRPPRLPRPRPRPHGCPRP | -0.00865
82 | RRIRWRPPRLPRPRPRPHFNPRP | -0.333
83 | RRIRARPPRLPRPRPRPHLGPRP | 0.0806
84 | RRIRNRPPRLPRPRPRPPWNPRP | 0.0711
85 | RRIRTRPPRLPRPRPRPFYPPRP | -0.478
86 | RRIRGRPPRLPRPRPRPNDWPRP | 0.235
87 | RRIRMRPPRLPRPRPRPWGEPRP | 0.232
88 | RRIRIRPPRLPRPRPRPAQGPRP | 0.168
89 | RRIRCRPPRLPRPRPRPHQMPRP | -0.691
90 | RRIRERPPRLPRPRPRPMPPPRP | 0.197
91 | RRIRERPPRLPRPRPRPVFWPRP | 0.39
92 | RRIRFRPPRLPRPRPRPLTMPRP | -0.396
93 | RRIRERPPRLPRPRPRPMRCPRP | 0.0239
94 | RRIRRRPPRLPRPRPRPLEPPRP | 0.582
95 | RRIRFRPPRLPRPRPRPESSPRP | 0.113
96 | RRIRCRPPRLPRPRPRPFLAPRP | 0.0788
97 | RRIRFRPPRLPRPRPRPDNDPRP | -0.188
98 | RRIRERPPRLPRPRPRPVKFPRP | -0.02
99 | RRIRERPPRLPRPRPRPDGKPRP | 0.00926
100 | RRIRIRPPRLPRPRPRPNDHPRP | -0.569

Row | Sequence | shrunken log2 fold change
101 | RRIRFRPPRLPRPRPRPPWYPRP | -0.3
102 | RRIRIRPPRLPRPRPRPQIGPRP | -0.451
103 | RRIRVRPPRLPRPRPRPKNKPRP | -0.169
104 | RRIRWRPPRLPRPRPRPYKDPRP | -0.33
105 | RRIRMRPPRLPRPRPRPNAAPRP | 2.83
106 | RRIRNRPPRLPRPRPRPTSGPRP | 0.211
107 | RRIRFRPPRLPRPRPRPQDTPRP | -0.46
108 | RRIRHRPPRLPRPRPRPMNWPRP | -0.209
109 | RRIRRRPPRLPRPRPRPNLHPRP | -0.288
110 | RRIRSRPPRLPRPRPRPWCKPRP | 0.149
111 | RRIRFRPPRLPRPRPRPPGMPRP | 0.461
112 | RRIRGRPPRLPRPRPRPTFEPRP | 0.923
113 | RRIRYRPPRLPRPRPRPYYFPRP | -2.19
114 | RRIRPRPPRLPRPRPRPNWRPRP | 0.392
115 | RRIRSRPPRLPRPRPRPVMIPRP | -0.0753
116 | RRIRPRPPRLPRPRPRPFQMPRP | -0.0867
117 | RRIRIRPPRLPRPRPRPIDYPRP | -1.06
118 | RRIRARPPRLPRPRPRPPKCPRP | 0.274
119 | RRIRYRPPRLPRPRPRPPIEPRP | -0.154
120 | RRIRMRPPRLPRPRPRPVVPPRP | -0.107
121 | RRIRHRPPRLPRPRPRPWNWPRP | -0.0135
122 | RRIRTRPPRLPRPRPRPQYLPRP | -0.436
123 | RRIRARPPRLPRPRPRPWRHPRP | 0.333
124 | RRIRHRPPRLPRPRPRPPHGPRP | 0.389
125 | RRIRRRPPRLPRPRPRPSPMPRP | 1.54

Row | Sequence | shrunken log2 fold change
126 | RRIRSRPPRLPRPRPRPWALPRP | -0.0699
127 | RRIRWRPPRLPRPRPRPKFIPRP | -0.17
128 | RRIRFRPPRLPRPRPRPFNFPRP | -1.17
129 | RRIRFRPPRLPRPRPRPAHVPRP | -0.0462
130 | RRIRWRPPRLPRPRPRPNPRPRP | 0.452
131 | RRIRARPPRLPRPRPRPFQQPRP | 0.00604
132 | RRIRMRPPRLPRPRPRPICKPRP | -0.0206
133 | RRIRHRPPRLPRPRPRPCFYPRP | -0.356
134 | RRIRCRPPRLPRPRPRPTNYPRP | 0.263
135 | RRIRSRPPRLPRPRPRPWNWPRP | -0.328
136 | RRIRARPPRLPRPRPRPRTIPRP | 0.148
137 | RRIRGRPPRLPRPRPRPVCFPRP | 0.997
138 | RRIRGRPPRLPRPRPRPGEVPRP | 1.2
139 | RRIRHRPPRLPRPRPRPEEEPRP | -0.0106
140 | RRIRGRPPRLPRPRPRPENDPRP | 1.74
141 | RRIRQRPPRLPRPRPRPFSTPRP | 0.0344
142 | RRIRTRPPRLPRPRPRPQSQPRP | -0.138
143 | RRIRYRPPRLPRPRPRPFLQPRP | -0.218
144 | RRIRCRPPRLPRPRPRPTLCPRP | -0.0107
145 | RRIRERPPRLPRPRPRPPEVPRP | 0.452
146 | RRIRWRPPRLPRPRPRPEPRPRP | 0.886
147 | RRIRARPPRLPRPRPRPMNIPRP | -0.583
148 | RRIRWRPPRLPRPRPRPFDTPRP | -0.113
149 | RRIRARPPRLPRPRPRPNRTPRP | 0.197
150 | RRIRRRPPRLPRPRPRPSSEPRP | -0.322
